The target in the experiment is human CDH17 as originally expressed in cells (cell surface CDH17 on AsPC1, GP2d and other cancer cell lines) (human) (UniProt Q12864). The experiment is described as follows: flow cytometry, labelled antibody on AsPC1 cells. (In general: In flow cytometry, cells or beads pass a laser one at a time.)

By EC80 is commonly meant the concentration at which the effect reaches the 80% level. Regarding “HBMAB81-AF647 (HBMAB81 mAb labeled with Alexa Flour 647) (antibody)”, the EC80 stood at 0.97 nM.
